This sample holds only a part of the variants without activity.
B1: TPR 5TU (parent)
chain: GGAUCUUCUCGAUCUAACAAAAAAGACAAAUCUGCCACAAAGCUUGAGAGCAUCUUCGGAUGCAGAGGCGGCAGCCUUCGGUGGCGCGAUAGCGCCAACGUUCUCAACUAUGACACGCAAAACGCGUGCUCCGUUGAAUGGAGUUUAUCAUG

Variants of: B1
Assay: polymerase ribozyme fitness, log enrichment relative to wild type (log ratio); higher = more active; in vitro selection for triplet polymerase activity
Method in brief: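 To select mutant libraries of each subunit of a heterodimeric triplet polymerase ribozyme, built by PCR and transcribed, each was annealed with a biotinylated primer, partner subunit and triplets, then incubated frozen at −7 °C. Extended constructs were gel-excised, captured on streptavidin beads and amplified by RT-PCR, in one round carried out in triplicate. Illumina sequencing of input and output libraries kept genotypes with ≥10 input reads and ≥1 read per output. Fitness is the base-2 logarithm of genotype enrichment relative to wild-type enrichment, from inverse-variance-weighted replicate averages.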

Variant | polymerase ribozyme fitness (log ratio)
GGGUCUUCUCGAUCUAACAAAAAAGACAAAUCUGCCACAAAGCUUGAGAGCAUAUUCGGAUGCAGAGGCGGCAGCCUUCGGUGGCGCGAUAGCGUCAACGUUCUCAACUAUGACACGCAAAACGCGUGCUCCGUUGAAUGGAGUUUAUCAUG | -2.06
GGGUCUUCUCGAUCUAACAAAAAAGACAAAUCUGCCACAAAGCUUGAGAGCAUCUUAGGAUGCAGAGGCGGCAGCCUUCGGUGGCGCGAACGUCCCAACGUUCUCAACUAUGACACGCAAAACGCGUGCUCUGUUGAAUUGUGUUUAUCAUG | ≤ -4.2
GGGUCUUCUCCAUCUAACAAAAAAGACAAAUCUCCCACAAGGCUUGAGAGCAUCUUCGGAUGCAGAGGCGGCAGCCUUCGGUGGCGAGAUAGCGCCAACGUUCUCAACUAUGACACGCAAAACGCGUGCUCCGUUGAAUGGAGUUUAUCAUG | -4.04
GGGUCUUCUCGAUCUAACAAAAAAGAAAAAUCUGCCACAAAGCUUGAGAGCAUCUUCGGAUGCAGAGGCGGCAGCCUUCGGUGGCGCCAUAGCGCCAACGUUCUCAACUAUGACACGCAAACCGCGUGCUCCGUUGAUUGGAGUUUAUCAUG | ≤ -4.2
GGGUCUUCUCGAUCUCACAAAGAAGACAAAUCUGCCACAAAGCUUGAGAGCAUCUUCGGAUGCAGAGGCGGCGGCCUUCGGUGUCGCGAUAGCGCCAACGUUCUCAACUAUGACACGCAAAAUGCGUGCUCCGUUGAAUGUAGUUUAUCAUG | ≤ -4.2
GGGUCUUCUCGAUCUAACAAAAAAGACAAAUCUGCCACCAAGCUUGAGAGCAUCUUCGGAUGCAGAGGCGGCAGCCUUCGGUGGCGCGAUAGCGCCAACGUUCUCAACUAUGACACGCAAAACGCGUGCUCCGUUGAAUGGAGUUUAUCAUG | -3.26
GGGUCUUCUCGAUCUAACAAAAAAGACAAAUCUGCCACAAAGCUUGAGAGCAUCUUCGGAUGCAGAGGCGGCAGCCUUCGGUGGCGCGAUAGCGCUAACGUUCUCAACUAUGACACGCAAAACGCGUGCUCCGUUGAAUGGAGUUUAUCAUG | -0.935
GGGUCUUCUCGAUCUAACAAAAAAGACAAAUCUGCCACAAAGCUUGAGAGCAUCUUCGGAUGCAGAGGCGGUAGCCUUCGGUGGUGCGAUAGCGCCAACGUUCUCAACUAUGACACGCAAAACGCGUGCUCCGUUGAAUGGAGUUCAUCAUG | -0.724
GGGUCUUCUCGAUCUAACAAAGACGACAAAUCUGCCACAAAGCUUGAGUGCAUCUUCGGAUGCAGAGGCGGCAGCAUUCGGUGGCGCGAUAGCGCCAACGUUCUCAACUAUGACACGCAAAACGCGUGCUGCGUUGAAUGGAGUUUAUCAUG | ≤ -4.2
GGGUGUACUCGAUCUAACAAAAAAGACAAAUCUGCCACAAAGCUUGAGAUCAUCUUCGGAUGCAGAGGCGGCAGCCUUCGGUGGCACGAUAGUGCUAACGUUCUCAACUAUGACACGCAAAACGCGUGCUCCGUUGAAUGGAGUUUAUCAUG | -0.354
GGGUCUUCUCGAUCUAACAAAAAAGACAAAUCUGCCACAAACCUUGAGAGCAUCUUCGGAUGCAGAGGGGGCAGCCUUCGGUGGGGCGAUAGCGCCAACGUUCUCAACUAUGACACGUAAAACGCGUGUUCCGUUGAAUGGAGUUUAUCAUG | ≤ -4.2
GGGUCUUGUCGAUCUAACAAAAAAGACGAAUCUGCCACAAAGCUUUAGAACAUCUUCGGAUGCAGACGCGGCAGCCUUCGGUGGCGCGAUACCGCCAACGUUCUCAUCUAUGACACGCAAAACGCGUGCUCCGUUGAAUGGAGUUUAUCAGG | ≤ -4.2
GGGUCUUCUCGAUCUAUCAAAAAAGACAAAUCUACCACAAAGCUUGAGAGCAUCUUCGGAUGCAGAGGCGGCAGCCUUCGGUGGCGCGAUAGCGCCAACGUUCUCAACUAUGACACGGAAAACGCGUGCUCCGUUGAAUGGAGUUAAUAAUG | ≤ -4.2
GGGUCUUCUCGAUCUAAGAAAAAAGACAAAUCUGCCACAAAGCUUGAGAGCAUCUUCGGAUGCAGAGGCGGCAGCCUUCGGUCGCGCGAUAGCGCCAACGUUCUCAACUAUGACACGCAAAACGCGUGCUCCGUUGAAUGGAGCUUAUCAUG | -2.47
GGGUCUUCUCGAUCUAACAAAAAAGACAAAUCUGCCACAAAGCUUGAGAGCAUCUUCGGAUGCAGAGGCGGCAGCCUUCGGUGGCGCGAUAGCGCAAUCGUCCUCAACUAUGACACGCAAAACGCGUGCUCCGUUGAAUGGAGUUUAUCAUG | -2.26
GGGUCUUCUCGAUCUAACAAAAAAGACAAAUCUGCCCCAAAGCUUGAGAGCAUCUUCGGAUGCAGAGGCGGCAGCCUUCUGUGGCGCGAUAGCGCCAACGUUCUCAACUAUGACACGCAAAACGCGUGCUCCGUUGAAUGGAGUUUAUCAUG | -3.88
GGGUCUUCUCGGUCUAACAAAAAAGACAAAUCUGCCACAAAGCUUGAGAGCGUCUUCGGAUGCAGAGGCGGCAGCCUUCGGUGACGCGAUAGCGCCAACGUUCUCAACUAUGACAGGCAAAACGCGUGCUCCGUUGAAUGGAGUUUAUCAUG | -1.71
GGGUCUUCUCGAUCUAACAAAAAAGACAAAUCUGCCACAAAGCUUGAGAGGAUCUACGGAUGCAGAGGCGGCAGCCUUCGGUGGCGCGAUAUCGCCAACGUUCUCAACUAUGACACGUAAAACGCGUGCUCCGUUGAAUGGAGUCUAUCAUG | ≤ -4.2
GGGUCUUCUCGAUCUAACUAAAAAGACAAAUCUGCCACAAAGCUUGAGAGCAUCUUCGGAUGCAGAGGCGGCAGCCUUCGGUGGCGCGAUAUCGCCAACGUUCUCAACUAUGCCACGCAAAACGCGUGCUCCGUUGAAUGGAGUUUAUCAUG | -3.43

— the RNAGym collection of RNA variant scans (doi:10.1073/pnas.2313332121)
